Consider 15 molecules from patent US20250099534A1 (TECHNION RESEARCH AND DEVELOPMENT FOUNDATION, published 2025).

The target in this assay is T1, biotinylated-Lys63 linked Di-Ub (UniProt P0CG47 1-76, isopeptide bond between the C-terminal Gly of the distal Ub and Lys63 of the proximal Ub; biotin tag at the N-terminus of the distal Ub).
T1 construct: mature; Immobilised on streptavidin plates or on the SPR CAPture chip; also called K63-linked Di-Ub; biotin-Lys63 linked Di-Ub
Nature of the assay: fluorescence-based competitive assay: unlabeled peptide, 5.0 molar equiv., pre-bound to biotinylated Lys63-linked Di-Ub on a streptavidin plate, then competed with CP1-FITC (1 equiv.); signal change relative to 1 (CP1), Y=[1-(a/b)]x100. On the procedure: Streptavidin-coated microplate (96 well plate) was washed with HEPES buffer (50 Mm HEPES, 150 Mm NaCl, pH 7.30) and then in each well incubated 1 μg of biotinylated-Lys63-linked Di-Ub in 100 μl of the same buffer at RT. for 30 min. Additional wells were kept without biotinylated-Lys63-Di-Ub for blank subtraction. After the washing step, peptide standard (CP1) and unlabeled peptides were incubated (5.0 molar equivalent relative to biotin-Lys63-linked Di-Ub) at RT for 30 minutes for saturation binding to the target. Then 1 molar equivalent of FITC labeled peptide-standard (CP1-FITC) relative to biotinylated-Lys63-linked Di-Ub was incubated to compete with unlabeled peptides at RT for 30 min. After releasing bounded peptides on treatment with 6 M Guanidinium chloride (Gnd·HCl), the fluorescence values were measured (λex=480 nm and λem=525 nm). These values were normalized and then calculated the relative change in binding with the following formula:
Y=[1−(a/b)]×100 [0289] Where Y=Signal change relative to the standard (CP1) (in terms of %). [0290] a=Measured signal value of each peptide candidate (in Relative Fluorescence Units). [0291] b=Measured signal value of standard peptide (CP1). The dissociation constant (KD) of fluorescein-labeled peptide (CP1-FITC) was calculated in accordance with the literature procedure (Vamisetti G B et al., 2021).

Starred links: 1 amine or outer side, 2 acyl side, 3 side chain; linkers in the order of their positions; H or OH if unused. Positions of bridges follow the written chain, without caps; N, C: chain ends. Primed or numbered codes have the meaning given here. No end group written: not given here. *: point of attachment. mClBz(3) = 3-(chloromethyl)benzoic acid, non-amino acid initiator forming a thioether with the C-terminal-region Cys, O=C(c1cccc(C[*:3])c1)[*:2]; mBz = 3-(methylene)benzoyl on the N-terminal amine, O=C(c1cccc(C[*:3])c1)[*:2]; Bn = c1ccc(C*)cc1; Acm = CC(=O)NC*

B1: 3 (peptide)
peptide: mBz-LCIWIGSSKNPYILCG-NH2
modifications: thioether N-15
SMILES: CC[C@H](C)[C@@H]1NC(=O)[C@H](Cc2c[nH]c3ccccc23)NC(=O)[C@H]([C@@H](C)CC)NC(=O)[C@H](CS)NC(=O)[C@H](CC(C)C)NC(=O)c2cccc(c2)CSC[C@@H](C(=O)NCC(N)=O)NC(=O)[C@H](CC(C)C)NC(=O)[C@H]([C@@H](C)CC)NC(=O)[C@H](Cc2ccc(O)cc2)NC(=O)[C@@H]2CCCN2C(=O)[C@H](CC(N)=O)NC(=O)[C@H](CCCCN)NC(=O)[C@H](CO)NC(=O)[C@H](CO)NC(=O)CNC1=O
notes: also called CP1-L2C; cyclic peptide 3
For B1, the binding result is listed as “binds”.

B2: 8 (peptide)
peptide: mBz-LLIWIGCSKNPYILCG-NH2
modifications: thioether N-15
SMILES: CC[C@H](C)[C@@H]1NC(=O)[C@H](Cc2c[nH]c3ccccc23)NC(=O)[C@H]([C@@H](C)CC)NC(=O)[C@H](CC(C)C)NC(=O)[C@H](CC(C)C)NC(=O)c2cccc(c2)CSC[C@@H](C(=O)NCC(N)=O)NC(=O)[C@H](CC(C)C)NC(=O)[C@H]([C@@H](C)CC)NC(=O)[C@H](Cc2ccc(O)cc2)NC(=O)[C@@H]2CCCN2C(=O)[C@H](CC(N)=O)NC(=O)[C@H](CCCCN)NC(=O)[C@H](CO)NC(=O)[C@H](CS)NC(=O)CNC1=O
notes: also called CP1-S7C; cyclic peptide 8
B2: the binding result was “binds”.

B3: 6 (peptide)
peptide: mBz-LLIWCGSSKNPYILCG-NH2
modifications: thioether N-15
SMILES: CC[C@H](C)[C@@H]1NC(=O)[C@H](CC(C)C)NC(=O)[C@H](CC(C)C)NC(=O)c2cccc(c2)CSC[C@@H](C(=O)NCC(N)=O)NC(=O)[C@H](CC(C)C)NC(=O)[C@H]([C@@H](C)CC)NC(=O)[C@H](Cc2ccc(O)cc2)NC(=O)[C@@H]2CCCN2C(=O)[C@H](CC(N)=O)NC(=O)[C@H](CCCCN)NC(=O)[C@H](CO)NC(=O)[C@H](CO)NC(=O)CNC(=O)[C@H](CS)NC(=O)[C@H](Cc2c[nH]c3ccccc23)NC1=O
notes: also called CP1-I5C; cyclic peptide 6
In the case of B3, the binding result is “binds”.

Regarding {mClBz(3)}-C(CH2CONH2)LIWIGSSKNPYILCG (bridge N-15; not fully specified (C-terminus, bridges)) [cyclic peptide 17, CP1-L1C-CH2CONH2], the binding result is “binds”.

B4: 14 (peptide)
peptide: mBz-C(Acm)LIWIGSSKNPYILCG-NH2
modifications: thioether N-15
SMILES: CC[C@H](C)[C@@H]1NC(=O)[C@H](Cc2c[nH]c3ccccc23)NC(=O)[C@H]([C@@H](C)CC)NC(=O)[C@H](CC(C)C)NC(=O)[C@H](CSCNC(C)=O)NC(=O)c2cccc(c2)CSC[C@@H](C(=O)NCC(N)=O)NC(=O)[C@H](CC(C)C)NC(=O)[C@H]([C@@H](C)CC)NC(=O)[C@H](Cc2ccc(O)cc2)NC(=O)[C@@H]2CCCN2C(=O)[C@H](CC(N)=O)NC(=O)[C@H](CCCCN)NC(=O)[C@H](CO)NC(=O)[C@H](CO)NC(=O)CNC1=O
notes: Acm-protected precursor of cyclic peptide 2; also called CP1-L1C-Acm; cyclic peptide 14
As to B4, the binding result is recorded as “binds”.

On to {mClBz(3)}-C(Bn)LIWIGSSKNPYILCG (bridge N-15; not fully specified (C-terminus, bridges)) [cyclic peptide 16, CP1-L1C-CH2C6H5], for which the binding result is on record as “binds”.

B5: 7 (peptide)
peptide: mBz-LLIWICSSKNPYILCG-NH2
modifications: thioether N-15
SMILES: CC[C@H](C)[C@@H]1NC(=O)[C@H](Cc2c[nH]c3ccccc23)NC(=O)[C@H]([C@@H](C)CC)NC(=O)[C@H](CC(C)C)NC(=O)[C@H](CC(C)C)NC(=O)c2cccc(c2)CSC[C@@H](C(=O)NCC(N)=O)NC(=O)[C@H](CC(C)C)NC(=O)[C@H]([C@@H](C)CC)NC(=O)[C@H](Cc2ccc(O)cc2)NC(=O)[C@@H]2CCCN2C(=O)[C@H](CC(N)=O)NC(=O)[C@H](CCCCN)NC(=O)[C@H](CO)NC(=O)[C@H](CO)NC(=O)[C@H](CS)NC1=O
notes: also called CP1-G6C; cyclic peptide 7
As to B5, the binding result is listed as “binds”.

B6: 5 (peptide)
peptide: mBz-LLICIGSSKNPYILCG-NH2
modifications: thioether N-15
SMILES: CC[C@H](C)[C@@H]1NC(=O)[C@H](CS)NC(=O)[C@H]([C@@H](C)CC)NC(=O)[C@H](CC(C)C)NC(=O)[C@H](CC(C)C)NC(=O)c2cccc(c2)CSC[C@@H](C(=O)NCC(N)=O)NC(=O)[C@H](CC(C)C)NC(=O)[C@H]([C@@H](C)CC)NC(=O)[C@H](Cc2ccc(O)cc2)NC(=O)[C@@H]2CCCN2C(=O)[C@H](CC(N)=O)NC(=O)[C@H](CCCCN)NC(=O)[C@H](CO)NC(=O)[C@H](CO)NC(=O)CNC1=O
notes: also called CP1-W4C; cyclic peptide 5
Turning to B6, the binding result was “binds”.

B7: 11 (peptide)
peptide: mBz-LLIWIGSSKNCYILCG-NH2
modifications: thioether N-15
SMILES: CC[C@H](C)[C@@H]1NC(=O)[C@H](Cc2c[nH]c3ccccc23)NC(=O)[C@H]([C@@H](C)CC)NC(=O)[C@H](CC(C)C)NC(=O)[C@H](CC(C)C)NC(=O)c2cccc(c2)CSC[C@@H](C(=O)NCC(N)=O)NC(=O)[C@H](CC(C)C)NC(=O)[C@H]([C@@H](C)CC)NC(=O)[C@H](Cc2ccc(O)cc2)NC(=O)[C@H](CS)NC(=O)[C@H](CC(N)=O)NC(=O)[C@H](CCCCN)NC(=O)[C@H](CO)NC(=O)[C@H](CO)NC(=O)CNC1=O
notes: also called CP1-P11C; cyclic peptide 11
Take B7: the binding result is “binds”.

For the molecule {mClBz(3)}-C(CH3)LIWIGSSKNPYILCG (bridge N-15; not fully specified (C-terminus, bridges)) [cyclic peptide 15, CP1-L1C-CH3], the binding result is on record as “binds”.

B8: 9 (peptide)
peptide: mBz-LLIWIGSCKNPYILCG-NH2
modifications: thioether N-15
SMILES: CC[C@H](C)[C@@H]1NC(=O)[C@H](Cc2c[nH]c3ccccc23)NC(=O)[C@H]([C@@H](C)CC)NC(=O)[C@H](CC(C)C)NC(=O)[C@H](CC(C)C)NC(=O)c2cccc(c2)CSC[C@@H](C(=O)NCC(N)=O)NC(=O)[C@H](CC(C)C)NC(=O)[C@H]([C@@H](C)CC)NC(=O)[C@H](Cc2ccc(O)cc2)NC(=O)[C@@H]2CCCN2C(=O)[C@H](CC(N)=O)NC(=O)[C@H](CCCCN)NC(=O)[C@H](CS)NC(=O)[C@H](CO)NC(=O)CNC1=O
notes: also called CP1-S8C; cyclic peptide 9
With B8, the binding result is given as “binds”.

B9: 4 (peptide)
peptide: mBz-LLCWIGSSKNPYILCG-NH2
modifications: thioether N-15
SMILES: CC[C@H](C)[C@@H]1NC(=O)[C@H](Cc2c[nH]c3ccccc23)NC(=O)[C@H](CS)NC(=O)[C@H](CC(C)C)NC(=O)[C@H](CC(C)C)NC(=O)c2cccc(c2)CSC[C@@H](C(=O)NCC(N)=O)NC(=O)[C@H](CC(C)C)NC(=O)[C@H]([C@@H](C)CC)NC(=O)[C@H](Cc2ccc(O)cc2)NC(=O)[C@@H]2CCCN2C(=O)[C@H](CC(N)=O)NC(=O)[C@H](CCCCN)NC(=O)[C@H](CO)NC(=O)[C@H](CO)NC(=O)CNC1=O
notes: also called CP1-I3C; cyclic peptide 4
For the molecule B9, the binding result is listed as “binds”.

B10: 12 (peptide)
peptide: mBz-LLIWIGSSKNPCILCG-NH2
modifications: thioether N-15
SMILES: CC[C@H](C)[C@@H]1NC(=O)[C@H](Cc2c[nH]c3ccccc23)NC(=O)[C@H]([C@@H](C)CC)NC(=O)[C@H](CC(C)C)NC(=O)[C@H](CC(C)C)NC(=O)c2cccc(c2)CSC[C@@H](C(=O)NCC(N)=O)NC(=O)[C@H](CC(C)C)NC(=O)[C@H]([C@@H](C)CC)NC(=O)[C@H](CS)NC(=O)[C@@H]2CCCN2C(=O)[C@H](CC(N)=O)NC(=O)[C@H](CCCCN)NC(=O)[C@H](CO)NC(=O)[C@H](CO)NC(=O)CNC1=O
notes: also called CP1-Y12C; cyclic peptide 12
For B10, the binding result is “binds”.

B11: 13 (peptide)
peptide: mBz-LLIWIGSSKNPYCLCG-NH2
modifications: thioether N-15
SMILES: CC[C@H](C)[C@@H]1NC(=O)[C@H](Cc2c[nH]c3ccccc23)NC(=O)[C@H]([C@@H](C)CC)NC(=O)[C@H](CC(C)C)NC(=O)[C@H](CC(C)C)NC(=O)c2cccc(c2)CSC[C@@H](C(=O)NCC(N)=O)NC(=O)[C@H](CC(C)C)NC(=O)[C@H](CS)NC(=O)[C@H](Cc2ccc(O)cc2)NC(=O)[C@@H]2CCCN2C(=O)[C@H](CC(N)=O)NC(=O)[C@H](CCCCN)NC(=O)[C@H](CO)NC(=O)[C@H](CO)NC(=O)CNC1=O
notes: also called CP1-I13C; cyclic peptide 13
Regarding B11, the binding result is on record as “binds”.

B12: 10 (peptide)
peptide: mBz-LLIWIGSSKCPYILCG-NH2
modifications: thioether N-15
SMILES: CC[C@H](C)[C@@H]1NC(=O)[C@H](Cc2c[nH]c3ccccc23)NC(=O)[C@H]([C@@H](C)CC)NC(=O)[C@H](CC(C)C)NC(=O)[C@H](CC(C)C)NC(=O)c2cccc(c2)CSC[C@@H](C(=O)NCC(N)=O)NC(=O)[C@H](CC(C)C)NC(=O)[C@H]([C@@H](C)CC)NC(=O)[C@H](Cc2ccc(O)cc2)NC(=O)[C@@H]2CCCN2C(=O)[C@H](CS)NC(=O)[C@H](CCCCN)NC(=O)[C@H](CO)NC(=O)[C@H](CO)NC(=O)CNC1=O
notes: also called CP1-N10C; cyclic peptide 10
In the case of B12, the binding result is listed as “binds”.
